What is called EC50 is the concentration giving half of the maximal effect. As a reminder, the EC50 (read off the curve) is the concentration giving half of the maximal effect.

Data on one molecule can be found in patent US20250179210A1 (Merck KGaA, published 2025).

In test [1] the target is T1, human CEACAM5 expressed on human cancer cell lines (MKN-45, NCI-H441, SK-CO-1, SNU-16, LS174T) (human, UniProt P06731 35-685).
T1 construct: Endogenous protein on cells; also called MKN45 cell line expressing human CEACAM5; CEACAM5-positive cell lines
T1 sequence: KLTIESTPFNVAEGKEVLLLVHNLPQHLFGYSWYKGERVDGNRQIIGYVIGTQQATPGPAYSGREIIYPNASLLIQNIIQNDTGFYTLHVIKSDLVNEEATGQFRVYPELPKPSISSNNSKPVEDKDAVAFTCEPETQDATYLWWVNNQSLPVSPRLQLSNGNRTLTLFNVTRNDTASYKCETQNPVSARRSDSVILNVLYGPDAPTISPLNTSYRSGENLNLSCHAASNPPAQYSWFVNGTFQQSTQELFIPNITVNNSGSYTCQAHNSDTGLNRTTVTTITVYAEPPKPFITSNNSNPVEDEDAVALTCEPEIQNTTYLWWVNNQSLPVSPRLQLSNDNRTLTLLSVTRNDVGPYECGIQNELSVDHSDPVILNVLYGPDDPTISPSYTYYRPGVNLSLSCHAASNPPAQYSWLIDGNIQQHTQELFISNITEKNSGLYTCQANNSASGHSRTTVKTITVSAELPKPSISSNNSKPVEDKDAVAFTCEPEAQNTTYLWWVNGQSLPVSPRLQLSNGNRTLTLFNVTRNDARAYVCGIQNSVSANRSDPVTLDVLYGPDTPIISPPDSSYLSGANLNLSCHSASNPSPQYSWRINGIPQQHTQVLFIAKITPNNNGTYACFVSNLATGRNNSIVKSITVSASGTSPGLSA
The test is described as follows: flow cytometry (MFI), titration on MKN-45 cells. As for the experimental part:
The antibody's ability to bind its target protein on cells was determined by titrating the antibody on cells that express the target (e.g. human CEACAM5) and measuring the fluorescence MFI of the cells. Model cells for antibody binding comparison were the MKN45 cell line expressing human CEACAM5 as well as a CHO cell line expressing mfCEACAM5. Titration was done with 10-point ×4 dilution, curve starting concentration 2000 nM in assay buffer (PBS×1 containing 1% BSA).
On the technique in general: In flow cytometry, cells or beads pass a laser one at a time.

The target of test [2] is T2, recombinant human CEACAM5 A2-B2 domain (Syngene) (human, UniProt P06731 321-498).
T2 construct: also called rhA2-B2 domain
T2 sequence: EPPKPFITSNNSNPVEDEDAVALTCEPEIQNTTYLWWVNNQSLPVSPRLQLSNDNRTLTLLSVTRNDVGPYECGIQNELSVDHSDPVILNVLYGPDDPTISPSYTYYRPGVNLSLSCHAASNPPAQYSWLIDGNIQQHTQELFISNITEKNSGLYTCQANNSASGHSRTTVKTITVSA
As to the kind of experiment: ELISA, 1 µg/ml coated antigen, antibody titrated; rhA2-B2 domain coated. A general note: ELISA stands for enzyme-linked immunosorbent assay.

Test [3] addresses T1, human CEACAM5 expressed on human cancer …. The test is described as follows: cellular binding on MKN45 cells (FIG. 2).
The target in test [4] is T3, recombinant human (rh) CEACAM5 ECD (Syngene) (human, UniProt P06731 35-685).
T3 sequence: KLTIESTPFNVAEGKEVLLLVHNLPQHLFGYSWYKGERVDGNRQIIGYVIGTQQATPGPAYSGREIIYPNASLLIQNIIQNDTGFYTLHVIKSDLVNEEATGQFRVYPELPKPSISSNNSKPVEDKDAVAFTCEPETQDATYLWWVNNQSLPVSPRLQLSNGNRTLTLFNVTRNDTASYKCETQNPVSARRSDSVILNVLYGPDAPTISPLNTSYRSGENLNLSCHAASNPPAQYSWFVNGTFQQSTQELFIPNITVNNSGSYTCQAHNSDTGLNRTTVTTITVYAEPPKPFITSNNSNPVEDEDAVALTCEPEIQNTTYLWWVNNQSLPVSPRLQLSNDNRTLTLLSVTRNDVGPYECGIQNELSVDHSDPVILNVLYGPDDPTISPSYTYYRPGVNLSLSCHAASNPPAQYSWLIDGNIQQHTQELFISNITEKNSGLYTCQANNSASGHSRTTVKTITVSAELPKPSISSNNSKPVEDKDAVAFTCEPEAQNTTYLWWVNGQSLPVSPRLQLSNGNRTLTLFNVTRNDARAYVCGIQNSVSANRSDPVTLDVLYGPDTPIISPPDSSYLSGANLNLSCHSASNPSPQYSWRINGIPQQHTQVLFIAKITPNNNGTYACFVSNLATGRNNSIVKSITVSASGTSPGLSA
The test is described as follows: ELISA, 1 µg/ml coated antigen, antibody titrated; rhCEACAM5 ECD coated.

The target in test [5] is T4, recombinant human CEACAM5 N-A1-B1 domain (Syngene) (human, UniProt P06731 35-320).
T4 construct: also called rhN-A1-B1
T4 sequence: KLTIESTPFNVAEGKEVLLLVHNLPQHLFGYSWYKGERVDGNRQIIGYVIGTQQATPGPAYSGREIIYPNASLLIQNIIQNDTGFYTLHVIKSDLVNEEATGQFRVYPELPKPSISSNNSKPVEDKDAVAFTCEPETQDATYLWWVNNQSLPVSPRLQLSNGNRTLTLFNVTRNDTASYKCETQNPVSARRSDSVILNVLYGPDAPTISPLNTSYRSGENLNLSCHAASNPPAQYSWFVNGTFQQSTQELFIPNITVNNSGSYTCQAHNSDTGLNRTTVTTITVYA
As to the kind of experiment: ELISA on coated antigen, antibody titrated.

The target in test [6] is T5, BSA (bovine serum albumin) (bovine, UniProt P02769 25-607).
T5 construct: Negative control; also called unrelated protein
T5 sequence (P02769 25-607 limits assumed): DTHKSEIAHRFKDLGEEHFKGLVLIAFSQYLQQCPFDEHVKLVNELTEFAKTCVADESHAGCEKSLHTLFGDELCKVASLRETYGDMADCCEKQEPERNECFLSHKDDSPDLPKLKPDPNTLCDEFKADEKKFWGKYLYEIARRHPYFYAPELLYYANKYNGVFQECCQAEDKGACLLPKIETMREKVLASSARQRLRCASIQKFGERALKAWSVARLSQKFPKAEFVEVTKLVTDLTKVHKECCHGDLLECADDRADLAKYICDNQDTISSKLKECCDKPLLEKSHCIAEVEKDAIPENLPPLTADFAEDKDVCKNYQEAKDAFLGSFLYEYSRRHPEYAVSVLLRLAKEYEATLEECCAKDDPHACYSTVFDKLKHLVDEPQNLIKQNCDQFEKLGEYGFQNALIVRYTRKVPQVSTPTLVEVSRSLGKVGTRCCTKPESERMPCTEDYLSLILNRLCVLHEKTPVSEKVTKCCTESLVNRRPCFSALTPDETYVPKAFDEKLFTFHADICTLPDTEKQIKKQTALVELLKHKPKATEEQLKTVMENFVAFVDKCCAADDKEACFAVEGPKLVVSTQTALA
As to the kind of experiment: ELISA on coated antigen, antibody titrated.

Test [7] deals with T3, recombinant human (rh) CEACAM5 ECD …. The test is described as follows: ELISA on coated antigen, antibody titrated.
The target of test [8] is T2, recombinant human CEACAM5 A2-B2 domain …. As to the kind of experiment: ELISA on coated antigen, antibody titrated.
Test [9] concerns the target T6, recombinant human CEACAM5 A3-B3 domain (Syngene) (human, UniProt P06731 499-685).
T6 construct: also called rhA3-B3
T6 sequence: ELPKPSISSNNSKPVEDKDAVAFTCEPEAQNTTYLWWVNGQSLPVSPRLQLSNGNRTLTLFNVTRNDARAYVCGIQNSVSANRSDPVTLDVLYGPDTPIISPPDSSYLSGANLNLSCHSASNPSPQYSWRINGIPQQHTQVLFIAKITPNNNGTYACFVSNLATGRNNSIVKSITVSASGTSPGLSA
As to the kind of experiment: ELISA on coated antigen, antibody titrated.

B1: mAb1 (final sequence-optimized anti-CEACAM5 antibody so8G4) (antibody, human IgG1, kappa)
heavy: EVQLQESGPGLVKPSQTLSLTCTVSDGSVSRGGYYLTWIRQHPGKGLEWIGYIYYSGSTYFNPSLRSRVTMSVDTSKNQFSLKLSSVTAADTAVYYCARGIAVAPFDYWGQGTLVTVSSASTKGPSVFPLAPSSKSTSGGTAALGCLVKDYFPEPVTVSWNSGALTSGVHTFPAVLQSSGLYSLSSVVTVPSSSLGTQTYICNVNHKPSNTKVDKRVEPKSCDKTHTCPPCPAPPVAGPSVFLFPPKPKDTLMISRTPEVTCVVVDVSHEDPEVKFNWYVDGVEVHNAKTKPREEQYNSTYRVVSVLTVLHQDWLNGKEYKCKVSNKALPSSIEKTISKAKGQPREPQVYTLPPSREEMTKNQVSLTCLVKGFYPSDIAVEWESNGQPENNYKTTPPVLDSDGSFFLYSKLTVDKSRWQQGNVFSCSVMHEALHNHYTQKSLSLSPG
light: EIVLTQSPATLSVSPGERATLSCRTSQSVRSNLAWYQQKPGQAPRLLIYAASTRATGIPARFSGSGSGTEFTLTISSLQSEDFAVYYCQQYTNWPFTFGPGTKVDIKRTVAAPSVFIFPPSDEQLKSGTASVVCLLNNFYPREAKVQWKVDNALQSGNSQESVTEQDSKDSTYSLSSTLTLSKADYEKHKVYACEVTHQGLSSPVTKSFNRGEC
notes: Labelled with pHrodo in the internalization assay
As to B1, the concentration giving a half-maximal response (EC50) came to 10.6 nM in [1], 0.167 nM in [2], 8.3 nM in [3] and 0.153 nM in test [4]. For the same molecule, the binding result in [5], in test [6] and in test [9] was “no binding (tested: 4000 pM)” in each case. The “EC50 (read off the curve)” value in test [7] and in test [8] was roughly 0.2 nM in each case.
